Reference: patent publication US11389509B1, “Methods for treatment of social dysfunction neurological disorders and seizures” (University of Virginia Patent Foundation, priority 2017, dated 2022)
“Also recorded” adds a separate entry of the source.

B1: IFN-γ: recombinant interferon-gamma cytokine (eBioscience), injected into the CSF via cisterna magna (protein, UniProt P01580 23-155, looked up)
Interferon gamma: HGTVIESLESLNNYFNSSGIDVEEKSLFLDIWRNWQKDGDMKILQSQIISFYLRLFEVLKDNQAISNNISVIESHLITTFFSNSKAKKDAFMSIAKFEVNNPQVQRQAFNELIRVVHQLLPESSLRKRKRSRC

Columns and labels:
[1] = test system: mice; test: Three-chamber sociability assay; format: in vivo, mouse; conditions: for social deficits / social behavior / social preference / social deficits: Ifng−/− mice; for social deficits / social behavior: diazepam 1.25 mg/kg i.p. 30 minutes prior to testing; for social preference / social deficits: single CSF (i.c.m.) injection of IFN-γ 20 ng, tested 24 hours post-injection
Protocol: The three-chamber sociability test was conducted as previously described^31. Briefly, mice were transported to the testing room and habituated for at least one hour. The room was maintained in dim light and a white noise generator used to mitigate any unforeseen noises. Test boxes were fabricated, in-house, by a machine shop. Test mice were placed in the center chamber with the two outer chambers containing empty wire cages (Spectrum Diversified Designs) and allowed to explore for ten minutes (habituation phase). After the habituation phase, mice were return to the center chamber. A novel mouse (an 8-10 week old male C57BL/6J˜18-22 g) was placed under one cup and an object placed under the other. Prior to testing, the novel mouse was habituated to the cup by being placed under the cup for 10 minutes, 3 times a day for 5 days. Mice were allowed to explore for an additional ten minutes (social phase). A video tracking system (CleverSys) was used to quantify the time spent around each target. For 3-chamber experiments comparing social behavior between wild-type and SCID mice, data collected using males and females were combined because no significant effects were found between genders.
A rat monoclonal antibody to murine VLA4 (clone PS/2) was affinity purified from hybridoma supernatants and was used with the kind permission of Dr. Klaus Ley (La Jolla Institute of Allergy and Immunology, San Diego, Calif.). Mice were given two separate injections (i.p.; 0.2 mg in saline per mouse), four days apart, of either anti-VLA4 or rat anti-HRP for control (clone HRPN; BioXcell), then tested twenty-four hours post final injection.
(§1) Mice were anaesthetized with a ketamine/xylazine [ketamine (100 mg/kg) and xylazine (10 mg/kg)] injection (i.p.) or isoflurane (2%), then placed into a stereotaxic frame with the head at an approximately 45° angle. The skin above cisterna magna was cleaned and sanitize before a 1 cm incision was made. The underlying muscles were separated with forceps, retracted, and a small Hamilton syringe (33 G) was used to slowly inject 1 uL of saline or IFN-γ (20 ng; eBioscience) into the cisterna magna (i.c.m.). After injection the syringe was held in place for 5 minutes to avoid back-flow of CSF. After the syringe was removed, muscles were put back in place and skin was sutured. Mice were placed on a heating pad and given ketoprofen and baytril for recovery.
Diazepam (1.25 mg/kg) was delivered i.p. for 30 minutes prior to testing for social behavior.

[2] = test system: Ifng−/− mice; test: Resting-state fMRI functional connectivity of PFC/insular nodes; format: in vivo, mouse; conditions: single injection of recombinant IFN-γ into the CSF
Description: The protocol for rsfMRI was adapted from Zhan et al.^32. Mice were maintained under light anesthesia with (1-1.25%) isoflurane and images were acquired on a 7.0 Tesla MRI Clinscan system (Bruker, Etlingen, Germany) using a 30-mm inner-diameter mouse whole-body radiofrequency coil. High-resolution structural images were acquired by collecting 16×0.7 mm thick coronal slices using TR/TE 5,500/65 ms and an […]. A BOLD rsfMRI time series of 16×0.7 mm thick coronal slices were collected using TR/TE 4,000/17 ms and a 60o flip angle. For analysis, a structural template^33 was custom labeled using “The Mouse Brain” by Paxinos and Franklin as reference (FIGS. 6A-6C). The non-rigid transformation between the template and each individual mouse was estimated using the open source Advanced Normalization Tools (ANTs) package^34 that was then used to propagate the regional labels to each subject. […] The correlation matrix was determined from the clean fMRI data using the regions labels. […] When comparing networks from multiple sample groups, the threshold was determined by calculating the maximum threshold that leaves one of the networks connected (i.e., it is possible to reach any node in the network from any other node). […]

[3] = test system: mice; test: PTZ induced seizures; format: in vivo, mouse; conditions: IFN-γ i.c.m. 24 hours prior to PTZ 40 mg/kg i.p.
Protocol: IFN-γ was injected (i.c.m.) into the CSF through the cisterna magna (i.c.m.), as described above, 24 hours prior to inducing seizures. Control mice were injected with the same volume of saline. To induce seizures, mice were injected with PTZ (40 mg/kg; i.p.). After injection, mice were placed into an empty housing cage and recorded for video analysis. Seizures were analyzed by a blinded observer using a behavior scoring system previously published^41.

[4] = test system: layer 2/3 prefrontal cortical neurons; test: Whole-cell patch-clamp of tonic inhibitory currents in acute brain slices; format: cell-based, mouse
Protocol: Visualized whole-cell patch-clamp recordings were performed on layer 2/3 prefrontal cortical neurons prepared from acute brain slices (adult) using the protective recovery method^42. Recordings were performed in 34° C. artificial cerebrospinal fluid (ACSF) containing (in mM) 131.5 NaCl, 25 NaHCO3, 12 D-glucose, 2.5 KCl, 1.25 NaH2PO4, 2 CaCl2, and 1 MgCl2. ACSF also contained 3 mM kynurenic acid to block synaptic excitation and […] NO-711 to enhance tonic inhibition^43. Slices were incubated in this ACSF for 5-10 minutes prior to placement in the recording chamber. The patch pipette solution with elevated chloride contained (in mM) 140 CsCl, 4 NaCl, 1 MgCl2, 10 HEPES, 0.05 EGTA, 2 Mg-ATP, and 0.4 Mg-GTP^43. Once recordings equilibrated, baseline holding current in ACSF was measured for 3.5 minutes, after which ACSF containing IFN-γ (20 pg/mL) was applied for 8.5 minutes and then washed. Data presented show the mean holding current during the last minute of control (ACSF) and drug (ACSF+IFN-γ) conditions.

[5] = test system: layer I neocortical neurons; test: c-fos immunohistochemistry in PFC after CSF injection; format: in vivo, mouse; conditions: IFN-γ injected into the CSF (i.c.m.) 2 hours prior to sacrificing
Protocol: Mice were sacrificed under Euthasol then transcardially perfused with PBS with heparin. Brains were removed and drop fixed in 4% PFA for 48 hours. After fixation, brains were washed with PBS, cryoprotected with 30% sucrose, then frozen in O.C.T. compound (Sakura Finetek) and sliced ([…]) with a cryostat (Leica). Free-floating sections were maintained in PBS+Azide (0.02%) until further processing. Immunohistochemistry for c-fos (1:1000 dilution; Millipore) on free-floating sections was performed as previously described^39.
as §1

| Molecule | social deficits / social behavior [1] | social deficits / social behavior ([1]; listed as Diazepam) | hyper-connectivity in the PFC (connections of local PFC/insular nodes) ([2]; Jennrich test P=0.02) | hyper-connectivity in the PFC (connections of local PFC/insular nodes) ([2]; Jennrich test P=0.02, listed as recombinant IFN-γ) | latency to reach each seizure stage / seizure onset [3] | maximum severity of seizures [3] | susceptibility to PTZ induced seizures [3] | tonic inhibition ([4]; VgatCre::Ifngr1fl/fl line, Cre− mice) | tonic inhibitory current ([4]; VgatCre::Ifngr1 fl/fl mice (IFN-γ receptor deleted from inhibitory neurons)) | tonic GABAergic inhibitory current (holding current) ([4]; slices from wild-type mice, IFN-γ 20 pg/mL in ACSF for 8.5 minutes) | social deficits ([1]; Ifngr1−/− mice, IFN-γ injected into the CSF) | social preference / social deficits [1] | social preference / social deficits ([1]; listed as recombinant IFN-γ) | c-fos+ cells in layer I of the PFC [5] | c-fos+ cells in layer I of the PFC ([5]; listed as recombinant IFN-γ) |
| --- | --- | --- | --- | --- | --- | --- | --- | --- | --- | --- | --- | --- | --- | --- | --- |
| CN1C(=O)CN=C(c2ccccc2)c2cc(Cl)ccc21 [diazepam, reference compound] | rescued social deficits | successfully rescued social behavior | – | – | – | – | – | – | – | – | – | – | – | – | – |
| B1 | – | – | connections were reduced | reduce overall hyper-connectivity in the PFC | increased latency to reach each seizure stage; also recorded: delayed seizure onset | reduced the maximum severity of seizures; also recorded: lowered seizure severity | less susceptible to PTZ induced seizures | increased tonic inhibition | prevented IFN-γ from augmenting tonic inhibitory current | increases tonic GABAergic inhibitory current; also recorded: augmented tonic current | not rescued | sufficient to rescue social deficits | sufficient to restore their social preference | increased the number of c-fos+ cells in Layer I of the PFC | activated layer I neocortical neurons |
